Data on 8 molecules can be found in patent US6087115A, “Methods of identifying negative antagonists for G protein coupled receptors” (Cornell Research Foundation, Inc., priority 1997, dated 2000).

Experiment [1] has as its target human IL-8 receptor types A or B. As to conditions: values previously reported (Holmes et al. 1991; Murphy and Tiffany 1991); cited from earlier work.
Experiment [2] concerns human IL-8 receptors (type A or B). In words: Inositol phosphate accumulation in COS-1 cells transfected with human IL-8 receptor plasmids with or without Ga16/Ga15. To be noted: COS cells expressing IL-8 receptors without cotransfected Ga16 or Ga15, absence or presence of IL-8. It counts as cell-based.
In another experiment the target is T1, KSHV GPCR (Human herpesvirus 8 type P, UniProt Q98146).
T1 construct: expressed in transfected cells; host or cells: COS-1
T1 sequence (Q98146 1-342): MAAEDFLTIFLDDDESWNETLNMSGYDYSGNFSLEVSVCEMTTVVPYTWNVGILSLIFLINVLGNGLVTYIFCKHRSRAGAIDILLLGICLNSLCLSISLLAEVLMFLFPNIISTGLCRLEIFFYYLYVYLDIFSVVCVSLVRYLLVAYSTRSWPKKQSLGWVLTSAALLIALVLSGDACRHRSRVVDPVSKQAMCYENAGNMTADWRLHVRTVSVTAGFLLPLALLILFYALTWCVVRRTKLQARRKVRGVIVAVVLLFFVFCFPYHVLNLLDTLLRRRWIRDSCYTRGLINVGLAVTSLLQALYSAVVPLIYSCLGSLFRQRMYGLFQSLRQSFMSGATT
The experiment can be described thus: Competition binding of 125I-IL-8 by unlabelled chemokines to COS-1 cells transfected with pcKSHV GPCR. As to conditions: for binding to KSHV GPCR (in words): competition analysis with 125I-IL-8, FIGS. 2 and 3; for Ki: competition of human recombinant 125I-IL-8, COS-1 cells transfected with pcKSHV GPCR, 4° C., 2 hrs, read-out: Kd or Ki. Here is the method:
Data represent the mean of triplicate determinations in a representative of two experiments;
Competition binding. The coding sequence of KSHV GPCR was cleaved from its original subcloning plasmid (Cesarman et al. 1996) by digestion with NcoI and inserted into the EcoRV site of the eukaryotic expression vector pcDNA3.1(+) (Invitrogen), producing the pcKSHV GPCR used for expression in mammalian cells. COS-1 cells (American Type Culture Collection) were grown in 100 mm petri dishes in Dulbecco's modified Eagle's medium (DMEM; GIBCO-BRL) with 5% Nu-Serum (Collaborative Research) in a humidified incubator in an atmosphere of 5% CO2 at 37° C. […] Approximately 100,000 cells per well (in 12-well plates) were washed with Hank's balanced salt solution (HBSS) containing 25 mM HEPES, pH 7.4 (GIBCO-BRL). […] The binding buffer contained bovine serum albumin (BSA; 1 mg/ml), bacitracin (1 mg/ml), and phenyl methyl sulphonyl fluoride (PMSF; 1 mM). Assays were terminated by aspirating the binding buffer, washing three times with chilled HBSS and solubilizing the cells with 0.4 N NaOH. An aliquot of this solution was counted in a gamma counter and the data expressed as percent of maximum bound. Binding and dose-response curves were analyzed using Prism software (GraphPad, Inc.).

A word on the Kd: it is a measure of binding affinity in units of concentration. As to “IL-8: member of the family of C-X-C chemokines; used as radioligand and unlabelled competitor”, the Kd in experiment [1] was 0.0008 to 0.001 µM. Moreover, in experiment [2], the “accumulation of IPs” value is “little measurable accumulation”.
In the case of MCP-1: chemokine of the C-C family, in the experiment with KSHV GPCR, the “binding to KSHV GPCR (in words)” value is recorded as “do not”.
A word on the Ki: it is a dissociation constant, usually derived from enzyme kinetics or from competition with a known ligand. With MGSA: C-X-C chemokine, in the experiment with KSHV GPCR, the “binding to KSHV GPCR (in words)” value is “also bind to KSHV GPCR” and the inhibitory constant (Ki) worked out at 0.27 µM.
In the same order, the values of PF-4: C-X-C chemokine are “also bind to KSHV GPCR” and 0.15 µM.
For the molecule RANTES: chemokine of the C-C family, in the experiment with KSHV GPCR, the “binding to KSHV GPCR (in words)” value was “bind to KSHV GPCR” and the inhibition constant Ki is 0.52 µM.

B1: MIP-1b: chemokine of the C-C family (protein, UniProt P13236 24-92, looked up)
C-C motif chemokine 4: APMGSDPPTACCFSYTARKLPRNFVVDYYETSSLCSQPAVVFQTKRSKQVCADPSESWVQEYVYDLELN
Turning to B1, in the experiment with KSHV GPCR, the “binding to KSHV GPCR (in words)” value is listed as “do not”.

B2: I-309: chemokine of the C-C family (protein, UniProt P22362 24-96, looked up)
C-C motif chemokine 1: KSMQVPFSRCCFSFAEQEIPLRAILCYRNTSSICSNEGLIFKLKRGKEACALDTVGWVQRHRKMLRHCPSKRK
As for B2, in the experiment with KSHV GPCR, the “binding to KSHV GPCR (in words)” value is “bind to KSHV GPCR” and the Ki is 0.11 µM.

B3: NAP-2: C-X-C chemokine (protein, UniProt P02775 59-128, looked up)
Neutrophil-activating peptide …: AELRCMCIKTTSGIHPKNIQSLEVIGKGTHCNQVEVIATLKDGRKICLDPDAPRIKKIVQKKLAGDESAD
modifications: Neutrophil-activating peptide 2
notes: C-X-C chemokine
Regarding B3, in the experiment with KSHV GPCR, the “binding to KSHV GPCR (in words)” value was “also bind to KSHV GPCR” and the inhibitory constant (Ki) came to 0.023 µM.
